The target in assay [1] is T1, MBP-RAMP2 ECD [L106R]-(GS)5-CLR ECD-H6 fusion protein (human, UniProt O60895 43-143; Q16602 29-144).
T1 chain: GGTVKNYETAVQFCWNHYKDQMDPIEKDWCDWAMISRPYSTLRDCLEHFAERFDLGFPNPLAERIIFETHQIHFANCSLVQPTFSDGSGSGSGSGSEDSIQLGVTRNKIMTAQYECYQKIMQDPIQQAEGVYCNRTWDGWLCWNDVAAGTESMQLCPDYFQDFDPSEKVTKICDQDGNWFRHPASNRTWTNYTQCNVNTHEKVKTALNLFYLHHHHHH
Kind of assay: FP competition, FITC-AM W/W probe, RAMP2-CLR ECD.

The target of assay [2] is T1, MBP-RAMP2 ECD [L106R]-(GS)5-CLR ECD-H6 …. Kind of assay: AlphaLISA/AlphaScreen competition, RAMP2-CLR ECD.
Assay [3] shares this target. Kind of assay: AlphaLISA competition, Biotin-AM probe.
Assay [4] shares this target. Kind of assay: FP competition; KI at RAMP1-CLR ECD over KI at RAMP2-CLR ECD.

Where no end group is shown, it is not given here.

B1: AM(37-52)NH2 [K46L, Q50W] (peptide)
peptide: DKDNVAPRSLISPWGY-NH2
In assay [1], B1 showed a Ki of 1.66 µM and a pKI of 5.78.

B2: AM(37-52)NH2 [S45W, K46L, Q50W, Y52F] (peptide)
peptide: DKDNVAPRWLISPWGF-NH2
Consider B2, for which, in assay [1], affinity was put at a Ki of 4.07 µM and the pKI was 5.39.

B3: AM(37-52)NH2 [S45W, K46M, Q50W, Y52F] (peptide)
peptide: DKDNVAPRWMISPWGF-NH2
In assay [1], B3 displayed an inhibition constant (Ki) of 7.76 µM and a pKI of 5.11.

B4: AM(37-52)NH2 [S45W, Q50W] (peptide)
peptide: DKDNVAPRWKISPWGY-NH2
notes: also called S45W/Q50W double mutant
In assay [1], B4 had a Ki of 0.0813 µM and a pKI of 7.09.

B5: AM(37-52)NH2[S45T, K46L, Q50W] (peptide)
peptide: DKDNVAPRTLISPWGY-NH2
In assay [1], B5 registered a Ki of 1.57 µM and a pKI of 5.8.

B6: AM(37-52)NH2 [D39F, K46L, Q50W, Y52F] (peptide)
peptide: DKFNVAPRSLISPWGF-NH2
In assay [1], B6 yielded an inhibition constant Ki of 30.3 µM and a pKI of 4.55.

B7: AM(37-52)NH2 [D39F, K46L, Q50W] (peptide)
peptide: DKFNVAPRSLISPWGY-NH2
With B7, in assay [1], the Ki came to 1.83 µM and the pKI was determined as 5.74.

B8: AM(37-52)NH2 [S45W, K46W, Q50W, Y52F] (peptide)
peptide: DKDNVAPRWWISPWGF-NH2
Turning to B8, in assay [1], affinity was put at a Ki of 16.6 µM and the pKI came out at 4.78.

B9: AM(37-52)NH2[S45T, K46W, Q50W] (peptide)
peptide: DKDNVAPRTWISPWGY-NH2
On to B9, for which, in assay [1], affinity was put at a Ki of 12.5 µM and the pKI came to 4.9.

B10: AM(37-52)NH2 [K46L, Q50W, Y52F] (peptide)
peptide: DKDNVAPRSLISPWGF-NH2
With B10, in assay [1], affinity was put at a Ki of 89.1 µM and the pKI is 4.05.

B11: AM(37-52)NH2 (peptide)
peptide: DKDNVAPRSKISPQGY-NH2
notes: also called WT (AM(37-52)NH2 scaffold)
B11 gave an IC50 in assay [2] of 5 to 15 µM. In assay [1], this molecule displayed a Ki of 20.4 µM and a pKI of 4.69.

B12: AM(37-52)NH2 [Q50W] (peptide)
peptide: DKDNVAPRSKISPWGY-NH2
In the case of B12, the “fold increase in affinity (against AM(37-52)NH2)” value in assay [3] is around 100 fold. In assay [1], this molecule registered a Ki of 0.316 µM and a pKI of 6.5.

B13: AM(37-52)NH2 [D39K] (peptide)
peptide: DKKNVAPRSKISPQGY-NH2
In assay [1], B13 returned an inhibition constant (Ki) of 6.1 µM and a pKI of 5.22.

B14: AM(37-52)NH2 [Q50F] (peptide)
peptide: DKDNVAPRSKISPFGY-NH2
B14: the “Receptor Selectivity (fold)” value in assay [4] was 5 fold. Moreover, in assay [1], the affinity corresponds to a Ki of 2.14 µM and the pKI is 5.67.

B15: CGRP(27-37)NH2 [N31D, S34P, K35W, A36S] (peptide)
peptide: FVPTDVGPWSF-NH2
As to B15, in assay [1], affinity was put at a Ki of 2.45 µM and the pKI is 5.61.

B16: CGRP(27-37)NH2 [N31D, V32T, S34P, K35W, A36G, F37Y] (peptide)
peptide: FVPTDTGPWGY-NH2
Turning to B16, in assay [1], affinity was put at a Ki of 14.5 µM and the pKI stood at 4.84.

B17: CGRP(27-37)NH2 [N31D, V32T, S34P, K35W, A36S] (peptide)
peptide: FVPTDTGPWSF-NH2
In assay [1], B17 gave a Ki of 2.75 µM and a pKI of 5.56.

B18: CGRP(27-37)NH2 [N31D, S34P, K35W, A36S, F37Y] (peptide)
peptide: FVPTDVGPWSY-NH2
Take B18: in assay [1], the Ki stood at 0.324 µM and the pKI was determined as 6.49.

B19: AM(37-52)NH2 [S45W, K46L, S48G, Q50W, Y52F] (peptide)
peptide: DKDNVAPRWLIGPWGF-NH2
As to B19, in assay [1], the Ki amounted to 1.25 µM and the pKI was 5.9.

For the origin of these results see patent US20200024320A1 (published 2020).
